Reference: article PMC9513677, “Systematic multi‐level analysis of an organelle proteome reveals new peroxisomal functions” (Molecular Systems Biology, 2022)
One block for each binder: values may come before it. Primed or numbered codes have the meaning given here. Where no end group is shown, it is not given here. FITC′ = fluorescein isothiocyanate

Target: T1, Full‐length Saccharomyces cerevisiae Pex5 (purified, for fluorescence anisotropy) (Saccharomyces cerevisiae, UniProt P35056 1-612)
T1 construct: Pex5, peroxisomal targeting factor (PTS1 receptor), Saccharomyces cerevisiae, full length; also called purified yeast Pex5; source: expressed in autoinduction medium, purified (Ni‐NTA, TEV digestion, second Ni‐NTA, gel filtration Superdex 200)
T1 sequence (looked up): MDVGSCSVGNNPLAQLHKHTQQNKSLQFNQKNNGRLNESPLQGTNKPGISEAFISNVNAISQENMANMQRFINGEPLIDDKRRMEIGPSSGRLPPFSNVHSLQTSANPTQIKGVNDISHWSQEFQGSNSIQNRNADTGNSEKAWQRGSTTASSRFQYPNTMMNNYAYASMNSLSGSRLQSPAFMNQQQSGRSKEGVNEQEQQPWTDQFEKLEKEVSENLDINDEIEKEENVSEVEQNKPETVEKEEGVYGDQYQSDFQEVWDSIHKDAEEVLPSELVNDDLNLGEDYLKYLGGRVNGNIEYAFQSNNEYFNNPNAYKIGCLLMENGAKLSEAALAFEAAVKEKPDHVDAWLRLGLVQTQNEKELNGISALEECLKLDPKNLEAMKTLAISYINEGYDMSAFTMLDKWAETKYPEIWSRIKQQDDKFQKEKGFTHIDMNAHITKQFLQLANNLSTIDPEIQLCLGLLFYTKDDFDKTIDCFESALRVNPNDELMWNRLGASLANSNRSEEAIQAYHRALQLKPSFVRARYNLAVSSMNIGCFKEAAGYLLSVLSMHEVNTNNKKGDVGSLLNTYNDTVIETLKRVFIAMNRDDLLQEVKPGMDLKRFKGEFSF
Experiment: fluorescence polarisation; fluorescence anisotropy; FITC peptide at 10 nM, Pex5 in serial dilution; 50 mM Hepes pH 7.5, 150 mM NaCl; black 96-well plates, excitation/detection 470/530 nm; three independent experiments; binding-saturation model with one binding site
Details: both partners purified

Kd: 5.5 ± 0.5 µM
B1: FITC-labeled peptide of the carboxyl terminus of Idp3 (known PTS1 motif) (peptide)
peptide: {FITC′}-YEDKKGMCKL
notes: tyrosine added at the N terminal of the Idp3 peptide for concentration determination; not part of Idp3; Idp3, Saccharomyces cerevisiae, carboxyl terminus with the PTS1 motif; also called PTS1 motif from Idp3; source: synthetic peptide (Genscript)

Kd: 9.5 ± 2.9 µM
B2: FITC-labeled peptide of the carboxyl‐terminal 10 amino acids of Yhl045w (Pxp3) (peptide)
peptide: {FITC′}-RKRVLGVAYL
notes: Yhl045w (Pxp3, Peroxisomal protein 3), Saccharomyces cerevisiae, the carboxyl-terminal 10 amino acids; also called Pxp3 motif; Pxp3 targeting peptide; source: synthetic peptide (Genscript)
